The values below come from paper PMC5082758, “A Novel Pathway for Metabolism of the Cardiovascular Risk Factor Homoarginine by alanine:glyoxylate aminotransferase 2” (Scientific Reports, 2016).

Substrate in series [1]: N=C(N)NCCCC[C@H](N)C(=O)O
As to the kind of experiment: purified protein. In kind it is biochemical, Homo sapiens. The following applies: amino donor, co-substrate 1 mM pyruvate, PLP added (200 μM in methods, 100 μM in Figure 3 legend), potassium phosphate pH 8, 0.15 M NaCl, 25 °C.

Substrate in series [2]: C[C@H](N)C(=O)O
As to the kind of experiment: purified protein. The following applies: amino donor, co-substrate 1 mM glyoxylate, PLP added (200 μM in methods, 100 μM in Figure 3 legend), potassium phosphate pH 8, 0.15 M NaCl, 25 °C.

B1: human alanine:glyoxylate aminotransferase 2 (AGXT2) (Homo sapiens) (protein)
chain: LHTKPRMPPCDFMPERYQSLGYNRVLEIHKEHLSPVVTAYFQKPLLLHQGHMEWLFDAEGSRYLDFFSGIVTVSVGHCHPKVNAVAQKQLGRLWHTSTVFFHPPMHEYAEKLAALLPEPLKVIFLVNSGSEANELAMLMARAHSNNIDIISFRGAYHGCSPYTLGLTNVGTYKMELPGGTGCQPTMCPDVFRGPWGGSHCRDSPVQTIRKCSCAPDCCQAKDQYIEQFKDTLSTSVAKSIAGFFAEPIQGVNGVVQYPKGFLKEAFELVRARGGVCIADEVQTGFGRLGSHFWGFQTHDVLPDIVTMAKGIGNGFPMAAVITTPEIAKSLAKCLQHFNTFGGNPMACAIGSAVLEVIKEENLQENSQEVGTYMLLKFAKLRDEFEIVGDVRGKGLMIGIEMVQDKISCRPLPREEVNQIHEDCKHMGLLVGRGSIFSQTFRIAPSMCITKPEVDFAVEVFRSALTQHMERRAK
notes: C-terminal FLAG fusion under CAG promoter; tag kept
By Km is commonly meant the concentration of substrate that gives half-maximal velocity. The term kcat denotes the number of substrate molecules converted per active site and unit of time at saturation. For orientation: kcat/Km means the second-order rate constant that governs catalysis at low substrate concentration. Regarding B1, in the series “purified protein [1]”, the Km was 24 ± 3 mM, the kcat turned out to be 0.0188 ± 0.00067 s⁻¹ and the kcat/Km was 0.783 ± 0.1 M⁻¹ s⁻¹. In the series “purified protein [2]”, the Km is reported as 25 ± 3 mM, the kcat came to 0.142 ± 0.0083 s⁻¹ and the kcat/Km is 5.67 M⁻¹ s⁻¹.
